Test results: patent US20240117334A1, “FACTOR B PROTEASES” (Vertex Pharmaceuticals Incorporated, priority 2021, published 2024)
Where “and” joins values, the source holds several entries; their conditions need not be identical. Equal values may be shown once. Read-outs that look alike come from different tables or passages of the source.

Tests used:
[1] = Baseline stability in indirect and MTSP buffer (+/-EDTA) and PBS at 37° C., peptide substrate EGVDAE-QF; format: physicochemical; conditions: indirect buffer pH 7.4, MTSP buffer
Procedure: Further, various chymase-based engineered proteases were tested to evaluate their baseline stability, by testing the effects of indirect and MTSP buffer (+/−EDTA) on the chymase-based engineered proteases. The peptide substrate EGVDAE-QF (SEQ ID NO: 52) was used for these experiments.
FIGS. 4A-4E depict graphs showing the stability of five different chymase proteases tested using a peptide substrate, in PBS, at 37° C.

[2] = target: T1, Human Factor B (Homo sapiens, UniProt P00751); experiment: Human Factor B cleavage EC50 in 80% human plasma (Table 10A); format: biochemical
T1 sequence (P00751 26-764): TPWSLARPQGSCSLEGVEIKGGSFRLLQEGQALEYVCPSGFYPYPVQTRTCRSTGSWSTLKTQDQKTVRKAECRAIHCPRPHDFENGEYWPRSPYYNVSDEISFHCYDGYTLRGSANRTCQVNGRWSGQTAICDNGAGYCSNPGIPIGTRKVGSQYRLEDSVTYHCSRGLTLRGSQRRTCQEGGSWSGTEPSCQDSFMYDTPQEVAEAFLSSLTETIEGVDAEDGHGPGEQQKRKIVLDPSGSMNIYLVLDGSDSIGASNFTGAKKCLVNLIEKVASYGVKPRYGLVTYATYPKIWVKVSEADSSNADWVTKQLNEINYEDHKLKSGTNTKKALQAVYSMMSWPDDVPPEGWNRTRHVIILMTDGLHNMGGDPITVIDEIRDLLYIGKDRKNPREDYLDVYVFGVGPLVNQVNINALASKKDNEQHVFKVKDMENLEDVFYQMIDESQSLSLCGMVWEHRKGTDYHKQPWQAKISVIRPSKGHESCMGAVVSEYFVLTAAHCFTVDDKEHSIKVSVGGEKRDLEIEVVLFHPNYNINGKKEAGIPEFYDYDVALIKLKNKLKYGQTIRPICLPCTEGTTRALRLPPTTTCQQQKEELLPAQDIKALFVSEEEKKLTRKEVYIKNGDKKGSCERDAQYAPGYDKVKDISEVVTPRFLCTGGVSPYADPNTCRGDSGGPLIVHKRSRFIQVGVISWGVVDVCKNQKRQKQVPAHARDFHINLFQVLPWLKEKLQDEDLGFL
Procedure: Cleavage of Factor B by various engineered proteases was evaluated. Engineered chymase-, MTSP-1-, and uPA-based proteases were tested. All references in this Example, including Tables 10A, 10B, 11A, and 11B, to engineered proteases are depicted in chymotrypsin numbering. The chymotrypsin numbering key for the modified protease domains of engineered proteases are found in Tables 2, 4, and 6 for uPA, MTSP-1, and chymase, respectively. These experiments were also performed to evaluate the stability of non-naturally occurring chymases in various media, including cynomolgus monkey vitreous humor, human plasma, and phosphate buffered saline (PBS). Briefly, Factor B was diluted into an assay buffer and incubated at 37° C. with naturally occurring (wild type) and non-naturally occurring (engineered) proteases in vitreous humor, plasma, or PBS, and the reactions were quenched with HCl at various time points. The time points tested for chymase include T=0 which used 6 hours pre-incubation, T=2 hours which used 4 hours pre-incubation, T=4 hours which used 2 hours pre-incubation, and T=6 hours which used 0 hours pre-incubation. Assaying of the sample was performed with ELISA, or alpha screen for human C3 cleavage, using standard protocols.
A summary of the results is presented in Tables 10A-10B below, showing the various tested proteases, the concentration of the protease used in nM and the EC50 of human Factor B cleavage. Table 10 presents human Factor B cleavage by various non-naturally occurring chymase-based engineered proteases, tested in 80% human plasma, compared against a chymase comprising the mutation string […]. Blank cells indicate that a test was not performed for a particular protease mutation string.

[3] = target: T1, Human Factor B; experiment: as above; format: biochemical; conditions: chymase-based; 64% plasma; read-out: fB Cleavage, 64% plasma EC50
[4] = Half-life in 50% human plasma of chymase-based engineered proteases; format: in vitro ADME; conditions: EGVD′AE substrate
Procedure: Table 10B presents human Factor B cleavage by various engineered chymase-, MTSP-1-, or uPA-based proteases, tested in mouse or human plasma. For ELISA analysis of Factor B cleavage, briefly, anti-Ba was used, and Bb was detected with anti-Bb. A dynamic range of 25-1600 pM was used. Half-life in 50% human plasma was also calculated for various chymase-based engineered proteases.

[5] = test system: serpins; experiment: Serpin inhibition tests of chymase-based engineered proteases; format: biochemical
Procedure: Inhibition tests were carried out using chymase-based engineered proteases. Various serpins, which are capable of inhibiting protease activity, were used to test whether these could be used for adequate inhibition of the tested chymase-based engineered proteases, to enable selection of an engineered protease resistant to inhibition in plasma. All references in this Example to engineered proteases are depicted in chymotrypsin numbering. The chymotrypsin numbering key for the modified protease domains of engineered proteases are found in Tables 2, 4, and 6 for uPA, MTSP-1, and chymase, respectively.

| EC50 ([2]; Table 20, cleavage activity as of Table 10, unit inferred, read-out: EC50 Fb Cleavage) [nM] | EC50 ([2]; chymase-based engineered proteases, no plasma stated, read-out: fB Cleavage EC50) | EC50 [3] | kapp ([5]; Plasma Inhibitor: ACT) [M⁻¹ s⁻¹] | kapp ([5]; Plasma Inhibitor: alpha-2-marcroglobin (A2M)) [M⁻¹ s⁻¹] | Molecule | stability (remaining activity) in buffers, peptide substrate [1] | t1/2 in 50% human plasma (min) (EGVD′AE)(SEQ ID NO: 13) [4] |
| --- | --- | --- | --- | --- | --- | --- | --- |
| – | – | – | – | – | Wild type or naturally occurring chymase: wild type human mast cell chymase protease domain (SEQ ID NO: 6) (protein, listed as Homo sapiens) IIGGTECKPHSRPYMAYLEIVTSNGPSKFCGGFLIRRNFVLTAAHCAGRSITVTLGAHNITEEEDTWQKLEVIKQFRHPKYNTSTLHHDIMLLKLKEKASLTLAVGTLPFPSQFNFVPPGRMCRVAGWGRTGVLKPGSDTLQEVKLRLMDPQACSHFRDFDHNLQLCVGNPRKTKSAFKGDSGGPLLCAGVAQGIVSYGRSDAKPPAVFTRISHYRPWINQILQAN | loss of activity in all buffers | – |
| 170 | 151 to 182 nM and 177 nM | 6000 nM and 5620 nM | 428 | 645 | C22S/F173Y/D175N/A226R: chymase-based engineered protease (protein, listed as Homo sapiens) IIGGTESKPHSRPYMAYLEIVTSNGPSKFCGGFLIRRNFVLTAAHCAGRSITVTLGAHNITEEEDTWQKLEVIKQFRHPKYNTSTLHHDIMLLKLKEKASLTLAVGTLPFPSQFNFVPPGRMCRVAGWGRTGVLKPGSDTLQEVKLRLMDPQACSHYRNFDHNLQLCVGNPRKTKSAFKGDSGGPLLCAGVAQGIVSYGRSDAKPPRVFTRISHYRPWINQILQAN | – | 7.3 min and 9.0 min |
